This note sets out measurements from article PMC10692919.

The target in this assay is BMPs (in the Hep3B hepcidin bioassay).

B1: Full-length ERFE ΔCollagen, 43-354 del109-125, FLAG-tagged (natural protein)
chain: EPPPGNELPRGPGESRAGPAARPPEPTAERAHSVDPRDAWMLFVRQSDKGVNGKKRSRGKAKKLKFIIPPEALLKEFQLLLKGAVRQRERAEPEPCTCGPAGPVAASLAPVSATAGEDDDDVVGDVLALLAAPLAPGPRAPRVEAAFLCRLRRDALVERRALHELGVYYLPDAEGAFRRGPGLNLTSGQYRAPVAGFYALAATLHVALGEPPRRGPPRPRDHLRLLICIQSRCQRNASLEAIMGLESSSELFTISVNGVLYLQMGQWTSVFLDNASGCSLTVRSGSHFSAVLLGV
With B1, the IC50 of suppression of hepcidin mRNA (qPCR) in Hep3B cells is 10 nM.
